Measured values reported in patent US20230372399A1.
Read-outs that look alike come from different tables or passages of the source. One block for each substance: values may come before it.

Key:
Assay in all cases: cell-based or functional assay
[1] = biological target: IL-2Rαβγ (on CTLL-2 cells)
[2] = biological target: IL-2Rβ and common γ chain (on 32Dβ cells)
[3] = biological target: IL-2Rβ and common γ chain (on 32Dβ cells); remark: listed apart in the source
[4] = biological target: IL-2Rβ and common γ chain (on 32Dβ cells); remark: listed apart in the source
IL-21R (on B9 cells) = biological target: IL-21R (on B9 cells)
TGFβ1 (R&D systems) [5] = biological target: TGFβ1 (R&D systems) (UniProt P01137)
TGFβ1 (R&D systems) [6] = biological target: TGFβ1 (R&D systems) (UniProt P01137); remark: listed apart in the source

Sequence of TGFR-Fc (R&D Systems) (P37173 24-159): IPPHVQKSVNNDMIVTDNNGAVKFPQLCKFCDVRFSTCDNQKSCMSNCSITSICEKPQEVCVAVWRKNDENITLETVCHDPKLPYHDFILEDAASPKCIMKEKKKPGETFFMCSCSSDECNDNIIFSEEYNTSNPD
Sequence of TGFβ1 (R&D systems) (P01137 279-390 limits assumed): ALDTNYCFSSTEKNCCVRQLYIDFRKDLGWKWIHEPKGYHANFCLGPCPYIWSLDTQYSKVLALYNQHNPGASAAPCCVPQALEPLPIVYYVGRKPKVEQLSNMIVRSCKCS

- EC50, CTLL-2 cell proliferation (WST-1) [1]: 0.548 nM
Substance: recombinant IL-2 (from UniProt P60568 21-153) (ligand)

- EC50, 32Dβ cell proliferation (WST-1) [2]: 0.0166 nM
- EC50, 32Dβ cell proliferation (WST-1) [3]: 0.0016 nM
- EC50, CTLL2 cell proliferation (PrestoBlue) [1]: 0.00495 nM
- EC50, CTLL2 cell proliferation (WST-1) [1]: 0.00622 nM
- EC50, 32Dβ cell proliferation (WST-1) [4]: 0.0106 nM
Substance: recombinant IL-15 (from UniProt P40933 49-162) (ligand)

- EC50, B9 cell proliferation (WST-1) (IL-21R (on B9 cells)): 72.5 nM
Substance: recombinant IL-21 (from UniProt Q9HBE4 32-162) (ligand)

- IC50, inhibition of TGFβ1 activity, HEK-Blue TGFβ reporter cells (TGFβ1 (R&D systems) [5]): 0.559 nM
- IC50, inhibition of TGFβ1 activity, HEK-Blue TGFβ reporter cells (TGFβ1 (R&D systems) [6]): 0.461 nM
Substance: TGFR-Fc (R&D Systems) (from UniProt P37173 24-159) (Fc fusion)
